Reference: patent publication US20050287527A1, “Quantitative ranking of transient ligand binding to target biomolecules” (National Research Council of Canada, priority 2002, published 2005)

How the values were obtained:
[1] = molecular target: human prothrombin (human), P00734; assay: 15N CPMG NMR relaxation dispersion, linear three-site fit of eighteen curves; 298 K
[2] = molecular target: human prothrombin (human), P00734; assay: 15N CPMG NMR relaxation dispersion, linear three-site fit of Glu57; 298 K
[3] = molecular target: human prothrombin (human), P00734; assay: 15N CPMG NMR relaxation dispersion, full three-site fit of eighteen curves; 298 K
[4] = molecular target: human α-thrombin (human), P00734; assay: 15N CPMG NMR relaxation dispersion of thrombin-cleaved FD22, two-site fit at the highest thrombin concentration; Arg47; FD22-C present; 288 K
[5] = molecular target: human α-thrombin (human), P00734; assay: 15N CPMG NMR relaxation dispersion of thrombin-cleaved FD22, two-site fit, highest thrombin:ligand ratio; Arg47; FD22-C present; 288 K
[6] = molecular target: human prothrombin (human), P00734; assay: 15N CPMG NMR relaxation dispersion, two-site fit; Ile59; 288 K
[7] = molecular target: human prothrombin (human), P00734; assay: 15N CPMG NMR relaxation dispersion, two-site fit; Tyr63; 288 K
[8] = molecular target: human prothrombin (human), P00734; assay: 15N CPMG NMR relaxation dispersion, two-site fit; Glu58; 288 K
[9] = molecular target: human prothrombin (human), P00734; assay: 15N CPMG NMR relaxation dispersion, two-site fit; Glu62; 288 K
[10] = molecular target: human prothrombin (human), P00734; assay: 15N CPMG NMR relaxation dispersion, two-site fit; Glu57; 288 K
[11] = molecular target: human prothrombin (human), P00734; assay: 15N CPMG NMR relaxation dispersion, two-site fit; Phe56; 288 K

What does the source list for DFEEIPEEYLQ (not fully specified; modifications not checked) [N-acetyl-Hir(55-65)]?
pb1 (population of the first bound state) [1]: 2.3%; pb2 (population of the second bound state) [1]: 1%; pb (total bound population) [1]: 3.35%; pb1 (population of the dissociation-competent bound state) [2]: 1.3%; pb2 (population of the second bound state) [2]: 4%; pb=pb1+pb2 (total bound population) [2]: 5.3%; pb1 (population of the first bound state) [3]: 1.45%; pb2 (population of the second bound state) [3]: 1.5%; pb (total bound population) [3]: 3%

How did the koff [4] turn out when FDPR (modifications not checked) [FD22-N] was run?
Its koff is 310 s⁻¹.

And the pb (apparent fraction of the bound peptide) [5]?
Its pb (apparent fraction of the bound peptide) is 3.2%.

With GDFEEIPEEYLQ (modifications not checked) [Hir(54-65)] as the binder, how does the pb (apparent fraction of the bound peptide) [6] read?
Its pb (apparent fraction of the bound peptide) is 6%.

What about the pb (apparent fraction of the bound peptide) [7] of the same binder?
Its pb (apparent fraction of the bound peptide) is 6.7%.

And the pb (apparent fraction of the bound peptide) [8]?
The pb (apparent fraction of the bound peptide) was 6.5%.

And the pb (apparent fraction of the bound peptide) [9]?
Its pb (apparent fraction of the bound peptide) is 6.9%.

What about the pb (apparent fraction of the bound peptide) [10] of the same binder?
The pb (apparent fraction of the bound peptide) was 4.9%.

What about the pb (apparent fraction of the bound peptide) [11] of the same binder?
The pb (apparent fraction of the bound peptide) was 4.5%.
